Earlier results on one substance are cited in paper PMC4815344.

For the data set, the target named is soluble epoxide hydrolase (Homo sapiens) (UniProt P34913).

Chain of soluble epoxide hydrolase (P34913 whole entry): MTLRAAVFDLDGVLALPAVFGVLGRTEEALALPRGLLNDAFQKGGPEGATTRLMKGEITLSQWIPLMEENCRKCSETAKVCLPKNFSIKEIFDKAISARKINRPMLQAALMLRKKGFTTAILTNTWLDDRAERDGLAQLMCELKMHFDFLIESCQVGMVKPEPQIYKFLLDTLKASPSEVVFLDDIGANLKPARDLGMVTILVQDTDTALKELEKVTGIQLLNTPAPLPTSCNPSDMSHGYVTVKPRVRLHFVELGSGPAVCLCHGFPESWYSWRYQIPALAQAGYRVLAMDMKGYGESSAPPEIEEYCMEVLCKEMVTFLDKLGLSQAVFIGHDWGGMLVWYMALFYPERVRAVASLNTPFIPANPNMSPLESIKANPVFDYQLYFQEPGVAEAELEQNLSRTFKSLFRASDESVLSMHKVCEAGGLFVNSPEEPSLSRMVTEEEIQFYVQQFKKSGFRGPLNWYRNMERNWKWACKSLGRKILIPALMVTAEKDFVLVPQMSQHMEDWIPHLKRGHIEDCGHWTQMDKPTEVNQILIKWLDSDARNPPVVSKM

Regarding “soluble epoxide hydrolase (from UniProt P34913)”, the dissociation constant (Kd) is 5 pM.
